Molecular target: the molecule itself
Test: EMSA supershift, hSIE probe, nuclear extracts of Stat3β-transfected B16 cells
Text: EGF-induced Stat3 binding activity in NIH3T3 (lane 4) was used as a positive control. By supershift analysis with antibody that recognizes Stat3 but not Stat3β or antibody that recognizes Stat3β but not Stat3, it was shown that there were Stat3-Stat3 homodimers in mock-transfected B16 cells and empty vector-transfected B16 cells. Overexpression of Stat3β in Stat3β-transfected B16 cells results in mostly Stat3β-Stat3β homodimer formation.

B1: Stat3β, dominant-negative Stat3 variant (ectopic, from pIRES-Stat3β) (other)
chain: AQWNQLQQLDTRYLEQLHQLYSDSFPMELRQFLAPWIESQDWAYAASKESHATLVFHNLLGEIDQQYSRFLQESNVLYQHNLRRIKQFLQSRYLEKPMEIARIVARCLWEESRLLQTAATAAQQGGQANHPTAAVVTEKQQMLEQHLQDVRKRVQDLEQKMKVVENLQDDFDFNYKTLKSQGDMQDLNGNNQSVTRQKMQQLEQMLTALDQMRRSIVSELAGLLSAMEYVQKTLTDEELADWKRRQQIACIGGPPNICLDRLENWITSLAESQLQTRQQIKKLEELQQKVSYKGDPIVQHRPMLEERIVELFRNLMKSAFVVERQPCMPMHPDRPLVIKTGVQFTTKVRLLVKFPELNYQLKIKVCIDKDSGDVAALRGSRKFNILGTNTKVMNMEESNNGSLSAEFKHLTLREQRCGNGGRANCDASLIVTEELHLITFETEVYHQGLKIDLETHSLPVVVISNICQMPNAWASILWYNMLTNNPKNVNFFTKPPIGTWDQVAEVLSWQFSSTTKRGLSIEQLTTLAEKLLGPGVNYSGCQITWAKFCKENMAGKGFSFWVWLDNIIDLVKKYILALWNEGYIMGFISKERERAILSTKPPGTFLLRFSESSKEGGVTFTWVEKDISGKTQIQSVEPYTKQQLNNMSFAEIIMGYKIMDATNILVSPLVYLYPDIPKEEAFGKYCRPESQEHPEADPGAAPYLKTKFICVTFIDAVWK
notes: ID; NO:3; NO:4'; It was expressed in B16 cells from pIRES-Stat3β and assayed in nuclear extracts; also called Stat3beta; ST3β
B1: binds.

Source: patent publication US20090227489A1 (UNIVERSITY OF SOUTH FLORIDA A FLORIDA, published 2009)
